What was measured:
[1] = test system: S. fibuligera β-glucosidase Bgl1; settings: Yan and Lin, 1997; cited from earlier work
A. niger β-glucosidase = settings: Yan and Lin, 1997; cited from earlier work
[2] = β-Glucosidase activity, release of pNP from pNPGlc; type: biochemical; settings: for activity on pNPGlc of purified enzyme: preliminary characterization, pNPGlc as substrate; for Specific activity: pNPGlc
Description: β-Glucosidase activity was measured by quantifying the release of pNP (p-nitroplienol) from pNPGlc as described previously (Guo et al., 2011). One unit of pNPGlcase activity was defined as the amount of enzyme required to release 1 μmol pNP per min. Cellobiose phosphorylase activity was assayed by measuring the formation of Glc-1P from cellobiose as described previously (Reichenbecher et al., 1997). One unit of activity (U) was defined as the amount of enzyme required to release 1 μmol Glc-1P per min. All protein concentrations were measured using the Bradford method and bovine serum albumin as a standard (Bradford, 1976).

[3] = Subcellular fractionation and enzyme localization, activity assayed with pNPGlc; type: biochemical, Y. lipolytica; settings: for Relative enzyme activity, Cytoplasm: fraction: Cytoplasm; for Relative enzyme activity, Growth medium: fraction: Growth medium; for Relative enzyme activity, Membrane: fraction: Membrane; for Relative enzyme activity, Periplasm: fraction: Periplasm; for Relative enzyme activity, Total: fraction: Total
Description: Fractionation of yeast cells was carried out as described by Cummings and Fowler (1996), with slight modifications. Briefly, yeasts were cultivated until a cellular density of 6×10^7 cells/mL was reached. Then, to quantify total β-glucosidase activity, a 50 mL sample was taken and subjected to centrifugation at 8,000×g for 5 min at 4° C. thus isolating a cell pellet and supernatant. The cell pellet was disrupted in Tris-HCl buffer (50 mM, pH 7.4, 3 mM EDTA and 0.5 mM PMSF) using a MP FastPrep-24 Instrument (MP Biomedicals Inc.). β-Glucosidase activity in both the cell lysate and the supernatant was determined as described earlier in order to estimate total β-glucosidase activity. Using a second 50 mL yeast culture, a cell pellet containing approximately 2×10^8 cells/mL was obtained by centrifugation and then treated with zymolyase 100T at 10 mg/mL (Seikagaku corp roger) in 15 mL of sorbitol buffer (1 M sorbitol, 50 mM Tris-HCl, pH 7.4, 2 mM dithiothreitol, 10 mM MgCl2, 20 mM-sodium azide, 0.5 mM PMSF) at 30° C. with gentle shaking. Protoplast formation was monitored using a microscope until ≧99% of the cells was lysed when. SDS was added (1% SDS w/v). The solid protoplast fraction was then separated from the supernatant by centrifugation (1000 rpm for 5 min at 4° C.) and the latter was designated as the periplasmic fraction. The protoplasts were re-suspended in Tris-HCl buffer (50 mM Tris-HCl, pH 7.4) and disrupted by vortex in the presence of glass beads (0.4-0.45 mm). The homogenate was centrifuged (20,000×g for 2 h at 4° C.) and the supernatant and solid fractions were designated as the cytoplasmic and membrane fraction respectively. Prior to enzyme assays, the membrane fraction was suspended in citrate buffer.
Activity was assayed with pNPGlc.

[4] = Specific activity on cellobiose; type: biochemical
From the text: (§1) When using aryl-substrates, the standard assay method was employed, simply replacing pNPGlc by another substrate as appropriate. For oligosaccharides, the release of glucose was quantified using an enzyme kit (D-Fructose/D-Glucose Assay Kit, liquid stable, Megazyme).

[5] = Michaelis-Menten kinetics (glucose release); type: biochemical; settings: cellobiose
From the text: as §1

[6] = Stability depending on pH and temperature (residual glucosidase activity); type: physicochemical
Description: (§2) Optimal temperatures and pH for the activity of Bgl1-His6 and Bgl2 were determined using pNPGlc as the substrate. Assays were either performed at pH 5.0 and various temperatures (30-70° C.), or at 30° C. in variable pH conditions (2.0 to 8.0) using either 50 mM glycine-HCl (pH 2.0), 50 mM citrate/acetate (pH 3.0-7.2), or potassium phosphate (pH 7.0-8.2) buffer. When the temperature was varied, the pH of the citrate buffer was adjusted accordingly. Stability of Bgl1-His6 and Bgl2 depending on pH and temperature was analysed as follows: enzymes were incubated at 30° C. for up to 2 h at various pH values (2.0 to 8.0), or at various temperatures (30-70° C.) for up to 2 h in 50 mM citrate buffer, pH 5.0. Residual glucosidase activity was then assayed at 30° C. in 50 mM citrate buffer, pH 5.0.

[7] = Substrate specificity, aryl-glycoside; type: biochemical
From the text: as §1

[8] = Optimal temperature and pH for activity; type: biochemical; settings: pNPGlc
Description: as §2

OC[C@H]1O[C@@H](O[C@H]2[C@H](O)[C@@H](O)C(O)O[C@@H]2CO)[C@H](O)[C@@H](O)[C@@H]1O (stereo partly drawn) [Cellobiose]
Km [1]: 2800 µM | Km (A. niger β-glucosidase): 2700 µM

B1: Bgl1: β-glucosidase of Y. lipolytica encoded by BGL1 (YALI0F16027g), SEQ ID NO: 4, mainly periplasmic (protein, listed as Yarrowia lipolytica)
chain: MIFSLQLLLTTALAASSPDWYPTPEIGSITSDWADALGESMDILAQLTLPEKVNITTGTGWRGGQCVGNTGAVPRLGIKGLCLQDGPLGVRFADFVNVFPCQNAMAATFDRILVHQRGTAIGRQSRLKGVDVHLGPVVGPLGRHATGGRNWEGFSPDPYLSGKLAFEAILGVQEEGVLATIKHFIGNEQEHYRRAEEWRDGFGFKDLKDAVSSNIEDRALHELYMWPFADAVRANVGSVMCSYNYVNGTQACQNSDLLNGKLKSELGFQGFVMSDWFAQGSGVSNALAGMDMSMPGNDVDELETVFWGEQLTRMVANGTLPEARLDDMVLRILTPLIYFGIDDRTPNFSSFVDTTVGSPHPAAKHSKKVKDVITNYHLDVRDQFAANVALDSARGAVVLLFNDGILPLKNISAIGVFGVGSRLGPNGAVCGENMQCSDGALIEGWGSGTAYPTEYESPYEALHKKASLLEVSVTGTTESWDMRLPLELAGDTDVNIVYVLANSGESTANVDKNLGDRRNVSLWHNGDELINTVASQGQTVVVVTTVGQVDMTAWLNHPNISAVLLTAPAGDYGGKAIADVLFGEVNPSGKLPYTIAANTSDYIPIVTKIPRDGAPQSDFVEGIYLDYKWYDKFERTPLYEFGYGLSYTTYSFSNLHLDVKEISEFLPPRPVPVQVTKPKMTNIDIEDLYVPNDFKMIDGLVYPWILNASAPLADSQTQFPFANGAGHVSDASGGVGGHPWLWSNAVTVTHNTTNCGDVAGRVVSQLYVAFPETLIDSPPVQLRGFDKSKLLNPGESQMTEYNLNWRDLAIWDVELQSWRVQRGEYSVYIGHSSREFELCETFTL
fold more active on pNPGlc than Bgl2 [2]: 5 fold | activity on pNPGlc of purified enzyme [2]: 102.8 U/mg | Relative enzyme activity, Cytoplasm [3]: 30.0 ± 0.5% | Relative enzyme activity, Growth medium [3]: 2.3 ± 0.4% | Relative enzyme activity, Membrane [3]: 8.1 ± 0.7% | Relative enzyme activity, Periplasm [3]: 60.7 ± 1.0% | Relative enzyme activity, Total [3]: 100% | specific activity on cellobiose [4]: 108 units/mg protein | KM fold lower than those of β-glucosidases from S. fibuligera and A. niger [5]: approximately 10 fold

B2: Bgl2: β-glucosidase of Y. lipolytica encoded by BGL2 (YALI0B14289g), SEQ ID NO: 6, secreted to the culture medium (protein, listed as Yarrowia lipolytica)
chain: MLAFVLLLTMLLAAALADPFSDKDAYKHSPPYYPAPEIGRVPTDLRWRAALKVAQGMVANMTLLEKVNITTGTGWEMGPCVGNTGTVERLGIKSLCLQDGPLGIRFADLITTFPAGITIASTFSRQLVRERGAAMGRENRRKGVDITLSPVVGPLGRHANGGRIWEGFSADPYLAGKLAAEAVTGIQGQNVMAVVKHMVGNEQEHFRQLGEWQGFGFKDLKQPLSSNIDDRTLNEAYLWPFADAVRANVGSVMCSYQQINGSQGCQNAHILNGKLKEEMGFQGFVMSDWLAQRSGVASVLAGLDMSMPGDGLVWADGVPLMGYELTRSVLNGTIDESRVDDMVTRILTPILYLSITPTDPNFSSWTNDTTSYKYYGAKAGGNVTVNRHIDVRDQYTTKAALDGANAALVLLKNEKKTLPLNPTNIGNLNIFGIGSKTGPLGAVCGENMQCSDGALIEGWGSGSVYPTDYQSPYDAIKERASKDNITIGGTTQSWGNLSNVEILSAAADASVVFVLSDSGESTGIVDGNIGDRNNLTLWHNGDEVVKAVASKNPNTIVVVTTVGPVNLEKWIDNPNVTAVLLTGPAGDFGGRAAASILFGDIAPSGKLPFTIAKNDTDYIPLTTKIPEDGLPQDYFTEGTLLDYKRFDENQVTPRFEFGYGLSYSNITVENLEARYAFPSIPEFLPTPFAPSNPNKPKNAFTPHANESVFPSDIDPLNKYVYPYLNDTSEIFSNETHYPYPEGYSSEQSNSTNINGGAVGGNPALWLSAVYIVHSVSNYGPYDTGVVTQMYIAFPQDNDDLKTAPRQLRGFERSELKVGERQGILYDVQWRDLAVWDVKLQSWRVQRGEYKVYVGHSSRDFVLTTSFTLK
enzyme activity remained ([6]; 30° C. and 40° C. at pH 5): 100% | pH range in which enzyme is stable ([6]; 30° C., up to 2 h): 3.5-7.0 | enzyme activity remained ([6]; pH 4.0, 5.0 and 6.0 at 30° C.): 100% | temperature below which enzyme is stable ([6]; pH 5.0, up to 2 h): below 50 °C | decrease in specific activity after deglycosylation ([2]; endoglycosidase H treatment, pNPG): 60% | Specific activity ([2]; purification step: Culture filtrate): 0.23 U/mg | Specific activity ([2]; purification step: Gel filtration): 25.8 U/mg | Specific activity ([2]; purification step: Ion exchange): 2.0 U/mg | Specific activity ([2]; purification step: Ultra filtration): 0.26 U/mg | activity on pNPGlc of purified enzyme [2]: 25.8 U/mg | Relative enzyme activity, Cytoplasm [3]: 4.8 ± 0.8% | Relative enzyme activity, Growth medium [3]: 79.6 ± 1.2% | Relative enzyme activity, Membrane [3]: 3.7 ± 0.3% | Relative enzyme activity, Periplasm [3]: 25.8 ± 1.0% | Relative enzyme activity, Total [3]: 100% | activity on pNP-α-D-glucopyranoside [7]: Neither enzyme displayed activity | activity on pNP-β-D-galactopyranoside [7]: Neither enzyme displayed activity | activity on pNP-β-D-cellobioside relative to pNPGlc ([7]; activity on pNPGlc as benchmark): 27% | specific activity on cellobiose [4]: 25 units/mg protein | pH of highest activity ([8]; 30° C.): 4.0 | temperature of highest activity ([8]; pH 5.0): 50 °C | KM fold lower than those of β-glucosidases from S. fibuligera and A. niger [5]: ~4 fold
